Series [1] concerns the molecule itself. The series is described as follows: cryo-EM structure; MBP-PML_(46–256) dimer fraction from SEC, ~3 mg/mL; non-tilt and 40°-tilt data; C2 symmetry imposed; 5.3 Å overall.
Series [2] deals with the molecule itself. The series is described as follows: SEC; analytical size exclusion on Superdex 200 Increase 10/300 GL in 20 mM HEPES, pH 7.4, 100 mM NaCl, 4% glycerol; all truncations N-terminally fused to MBP.
Series [3] concerns the molecule itself. The experiment in a line: cross-linking; XL-MS: purified SEC fractions crosslinked with 2 mM BS3 at 4 °C for 2 h; trypsin digest, LC-MS/MS, pLink2; intra-subunit XLs of the monomer fraction subtracted from those of the dimer.

B1: MBP-PML_(46–256) (domain or fragment, human, UniProt P29590 46-256, looked up)
chain: PASEEEFQFLRCQQCQAEAKCPKLLPCLHTLCSGCLEASGMQCPICQAPWPLGADTPALDNVFFESLQRRLSVYRQIVDAQAVCTRCKESADFWCFECEQLLCAKCFEAHQWFLKHEARPLAELRNQSVREFLDGTRKTNNIFCSNPNHRTPTLTSIYCRGCSKPLCCSCALLDSSHSELKCDISAEIQQRQEELDAMTQALQEQDSAFGA
notes: Monomer and dimer fractions were separated by SEC; The cryo-EM model covers P46-S221; also called PML RBCC fragment; PML RBCC dimer; source: E. coli BL21(DE3), purified (amylose column, Superdex 200 Increase SEC); not shown: MBP, N-terminal, kept
The term stoichiometry N denotes a count of units in the complex or per binding partner. As to B1, in series [1], the “stoichiometry N” value was 2.

B2: MBP-PML_(46–391) (domain or fragment, human, UniProt P29590 46-391, looked up)
chain: PASEEEFQFLRCQQCQAEAKCPKLLPCLHTLCSGCLEASGMQCPICQAPWPLGADTPALDNVFFESLQRRLSVYRQIVDAQAVCTRCKESADFWCFECEQLLCAKCFEAHQWFLKHEARPLAELRNQSVREFLDGTRKTNNIFCSNPNHRTPTLTSIYCRGCSKPLCCSCALLDSSHSELKCDISAEIQQRQEELDAMTQALQEQDSAFGAVHAQMHAAVGQLGRARAETEELIRERVRQVVAHVRAQERELLEAVDARYQRDYEEMASRLGRLDAVLQRIRTGSALVQRMKCYASDQEVLDMHGFLRQALCRLRQEEPQSLQAAVRTDGFDEFKVRLQDLSSCIT
notes: source: E. coli BL21(DE3), purified; not shown: MBP, N-terminal, kept
Regarding B2, the binding result in series [2] is “binds”.

B3: PML_(46–362) (domain or fragment, human, UniProt P29590 46-362, looked up)
chain: PASEEEFQFLRCQQCQAEAKCPKLLPCLHTLCSGCLEASGMQCPICQAPWPLGADTPALDNVFFESLQRRLSVYRQIVDAQAVCTRCKESADFWCFECEQLLCAKCFEAHQWFLKHEARPLAELRNQSVREFLDGTRKTNNIFCSNPNHRTPTLTSIYCRGCSKPLCCSCALLDSSHSELKCDISAEIQQRQEELDAMTQALQEQDSAFGAVHAQMHAAVGQLGRARAETEELIRERVRQVVAHVRAQERELLEAVDARYQRDYEEMASRLGRLDAVLQRIRTGSALVQRMKCYASDQEVLDMHGFLRQALCRLRQE
notes: PML (TRIM19), human, residues 46-362, the complete RBCC domain; also called truncated protein PML_(46–362); complete RBCC domain; source: E. coli BL21(DE3), purified; not shown: MBP, N-terminal, cleaved
As to B3, the binding result in series [3] was “binds”.

B4: MBP-PML_(46–362) (domain or fragment, human, UniProt P29590 46-362, looked up)
chain: PASEEEFQFLRCQQCQAEAKCPKLLPCLHTLCSGCLEASGMQCPICQAPWPLGADTPALDNVFFESLQRRLSVYRQIVDAQAVCTRCKESADFWCFECEQLLCAKCFEAHQWFLKHEARPLAELRNQSVREFLDGTRKTNNIFCSNPNHRTPTLTSIYCRGCSKPLCCSCALLDSSHSELKCDISAEIQQRQEELDAMTQALQEQDSAFGAVHAQMHAAVGQLGRARAETEELIRERVRQVVAHVRAQERELLEAVDARYQRDYEEMASRLGRLDAVLQRIRTGSALVQRMKCYASDQEVLDMHGFLRQALCRLRQE
notes: PML (TRIM19), human, residues 46-362; source: E. coli BL21(DE3), purified; not shown: MBP, N-terminal, kept
As to B4, in series [2], the binding result was “binds”.

For the origin of these results see publication PMC11589706, “Cryo-EM structure of PML RBCC dimer reveals CC-mediated octopus-like nuclear body assembly mechanism” (Cell Discovery, 2024).
